Test results from publication PMC11391049 (Life Science Alliance, 2024).
Values belong to the binder of their own block, whether it stands above or below them.

B5: β7-subunit (natural protein, S. cerevisiae, UniProt P30657 34-266, looked up)
chain: TQQPIVTGTSVISMKYDNGVIIAADNLGSYGSLLRFNGVERLIPVGDNTVVGISGDISDMQHIERLLKDLVTENAYDNPLADAEEALEPSYIFEYLATVMYQRRSKMNPLWNAIIVAGVQSNGDQFLRYVNLLGVTYSSPTLATGFGAHMANPLLRKVVDRESDIPKTTVQVAEEAIVNAMRVLYYRDARSSRNFSLAIIDKNTGLTFKKNLQVENMKWDFAKDIKGYGTQKI
notes: 20S proteasome subunit β7, S. cerevisiae, without its 33-residue propeptide (β7pro); the last 10 residues of the C-terminal extension are not resolved there

Assays:
Blm10 = molecular target: T1, Blm10 (S. cerevisiae, UniProt P43583 1-2143); assay: cryo-EM structure; native pre1-1CP-Blm10 complex copurified via FLAG-6xHis on β4; 2.4 Å, no symmetry applied; conditions: both partners purified
T1 construct: also called Blm10 chaperone

β7-subunit [1] = molecular target: B5; assay: cryo-EM structure; uncapped, fully matured 20S pre1-1CP isolated via FLAG-6xHis on β4; 2.0 Å with C2 symmetry; conditions: both partners purified
[2] = molecular target: T2, β4-S142F (pre1-1) with FLAG-6xHis-tag (S. cerevisiae, UniProt P22141 1-198, S142F); assay: affinity purification with mass spectrometry; tandem affinity purification (FLAG, 6xHis on β4) from pre1-1 cells overexpressing Pba1-Pba2, separation by native PAGE, bands evaluated by MS; conditions: partners not purified
T2 construct: Pre1/β4, S. cerevisiae, mutant version of the pre1-1 strain; also called pre1-1-FH; Pre1/β4 (β4-S142F)
T2 sequence: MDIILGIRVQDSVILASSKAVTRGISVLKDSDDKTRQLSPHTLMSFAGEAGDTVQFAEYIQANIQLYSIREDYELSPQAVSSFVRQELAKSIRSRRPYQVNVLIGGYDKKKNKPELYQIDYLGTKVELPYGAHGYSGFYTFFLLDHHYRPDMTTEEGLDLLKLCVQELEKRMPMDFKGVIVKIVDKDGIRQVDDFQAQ

β7-subunit [3] = molecular target: B5; assay: cryo-EM structure; late-PC (doubly capped with Pba1-Pba2) isolated via FLAG-6xHis on β4 from pre1-1 cells; 2.1 Å with C2 symmetry, 2.3 Å without; sub-populations late-PC1 (2.7 Å) and late-PC2 (2.3 Å); conditions: both partners purified
[4] = molecular target: T3, β5 precursor (β5-subunit with unprocessed β5-propeptide) (S. cerevisiae, UniProt P30656 1-287); assay: as above; conditions: both partners purified
T3 construct: β5/Pre2, S. cerevisiae, unprocessed precursor with the whole 75-residue propeptide (all but -65, -64 and -13 resolved); numbers count on: the mature subunit (Thr1 = +1, propeptide residues negative); also called Pre2; precursor form of the β5-subunit
T3 sequence (looked up): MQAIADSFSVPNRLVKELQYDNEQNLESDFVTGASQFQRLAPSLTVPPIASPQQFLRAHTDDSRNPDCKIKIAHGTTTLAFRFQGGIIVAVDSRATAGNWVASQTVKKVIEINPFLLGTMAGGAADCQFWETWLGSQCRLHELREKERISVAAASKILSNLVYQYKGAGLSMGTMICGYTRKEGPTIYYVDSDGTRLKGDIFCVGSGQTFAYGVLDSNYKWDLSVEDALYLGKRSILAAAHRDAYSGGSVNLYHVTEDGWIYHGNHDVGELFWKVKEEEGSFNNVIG

T1 sequence (P43583 whole entry): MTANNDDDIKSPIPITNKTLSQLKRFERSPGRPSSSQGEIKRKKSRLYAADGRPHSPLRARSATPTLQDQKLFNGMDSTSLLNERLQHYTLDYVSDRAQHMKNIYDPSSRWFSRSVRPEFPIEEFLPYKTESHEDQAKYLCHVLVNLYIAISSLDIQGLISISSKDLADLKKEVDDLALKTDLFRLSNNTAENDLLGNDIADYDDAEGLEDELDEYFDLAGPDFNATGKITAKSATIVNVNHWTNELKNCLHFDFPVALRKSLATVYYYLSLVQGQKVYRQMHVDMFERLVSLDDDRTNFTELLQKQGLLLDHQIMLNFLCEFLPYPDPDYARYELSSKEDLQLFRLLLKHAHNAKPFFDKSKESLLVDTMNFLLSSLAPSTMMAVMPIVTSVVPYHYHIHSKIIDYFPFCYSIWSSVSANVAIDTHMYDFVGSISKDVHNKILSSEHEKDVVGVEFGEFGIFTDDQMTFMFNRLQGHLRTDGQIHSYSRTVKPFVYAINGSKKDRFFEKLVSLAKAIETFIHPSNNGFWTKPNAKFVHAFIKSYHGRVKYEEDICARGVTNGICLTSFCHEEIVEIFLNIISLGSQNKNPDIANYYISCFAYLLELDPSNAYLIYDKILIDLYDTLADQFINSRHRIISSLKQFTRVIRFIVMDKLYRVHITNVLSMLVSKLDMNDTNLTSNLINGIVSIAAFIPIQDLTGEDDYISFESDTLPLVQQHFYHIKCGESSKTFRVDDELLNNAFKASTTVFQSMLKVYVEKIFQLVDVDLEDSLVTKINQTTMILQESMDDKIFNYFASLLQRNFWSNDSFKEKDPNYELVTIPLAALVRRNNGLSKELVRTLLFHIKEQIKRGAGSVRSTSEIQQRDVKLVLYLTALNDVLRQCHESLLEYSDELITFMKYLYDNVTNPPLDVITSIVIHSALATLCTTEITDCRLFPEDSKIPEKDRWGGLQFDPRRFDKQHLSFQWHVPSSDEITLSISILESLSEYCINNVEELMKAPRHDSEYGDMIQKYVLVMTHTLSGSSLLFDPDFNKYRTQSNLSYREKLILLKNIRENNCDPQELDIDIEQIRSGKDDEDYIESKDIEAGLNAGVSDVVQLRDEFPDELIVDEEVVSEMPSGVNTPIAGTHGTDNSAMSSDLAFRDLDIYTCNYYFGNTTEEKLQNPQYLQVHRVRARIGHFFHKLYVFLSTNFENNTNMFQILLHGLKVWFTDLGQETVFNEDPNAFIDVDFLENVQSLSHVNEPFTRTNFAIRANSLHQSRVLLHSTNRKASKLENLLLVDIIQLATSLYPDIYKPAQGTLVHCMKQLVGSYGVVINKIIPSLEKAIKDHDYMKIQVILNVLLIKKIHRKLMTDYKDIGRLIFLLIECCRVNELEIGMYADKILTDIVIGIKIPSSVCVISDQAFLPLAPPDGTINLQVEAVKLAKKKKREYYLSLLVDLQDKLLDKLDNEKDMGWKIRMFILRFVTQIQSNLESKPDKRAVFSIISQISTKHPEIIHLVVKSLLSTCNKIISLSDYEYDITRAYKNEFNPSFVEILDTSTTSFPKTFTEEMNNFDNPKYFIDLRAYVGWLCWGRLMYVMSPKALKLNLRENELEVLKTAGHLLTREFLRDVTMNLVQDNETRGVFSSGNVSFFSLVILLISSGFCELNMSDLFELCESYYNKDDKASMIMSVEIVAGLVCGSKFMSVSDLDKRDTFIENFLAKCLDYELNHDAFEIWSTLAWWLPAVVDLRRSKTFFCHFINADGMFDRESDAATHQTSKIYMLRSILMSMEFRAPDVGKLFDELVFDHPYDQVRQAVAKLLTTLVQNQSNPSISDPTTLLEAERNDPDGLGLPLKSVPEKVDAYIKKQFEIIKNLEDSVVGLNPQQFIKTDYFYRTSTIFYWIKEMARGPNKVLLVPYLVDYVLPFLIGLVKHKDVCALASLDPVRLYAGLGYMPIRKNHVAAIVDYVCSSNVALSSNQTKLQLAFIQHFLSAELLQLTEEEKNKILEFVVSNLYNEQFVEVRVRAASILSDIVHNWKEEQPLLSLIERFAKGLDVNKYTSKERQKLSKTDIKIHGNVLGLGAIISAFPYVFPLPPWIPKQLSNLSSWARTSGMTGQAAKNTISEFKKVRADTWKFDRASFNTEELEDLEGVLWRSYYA

B2: β6-subunit (natural protein, S. cerevisiae, UniProt P23724 20-241, looked up)
chain: QFNPYGDNGGTILGIAGEDFAVLAGDTRNITDYSINSRYEPKVFDCGDNIVMSANGFAADGDALVKRFKNSVKWYHFDHNDKKLSINSAARNIQHLLYGKRFFPYYVHTIIAGLDEDGKGAVYSFDPVGSYEREQCRAGGAAASLIMPFLDNQVNFKNQYEPGTNGKVKKPLKYLSVEEVIKLVRDSFTSATERHIQVGDGLEILIVTKDGVRKEFYELKRD
notes: 20S proteasome subunit β6, S. cerevisiae, without its 19-residue propeptide (β6pro)
binding result (β7-subunit [1]): binds

Binder: B5
binding result [4]: binds

B7: β1-subunit, autocatalytically cleaved (mature, in pre1-1CP) (natural protein, S. cerevisiae, UniProt P38624 20-215, looked up)
chain: TSIMAVTFKDGVILGADSRTTTGAYIANRVTDKLTRVHDKIWCCRSGSAADTQAIADIVQYHLELYTSQYGTPSTETAASVFKELCYENKDNLTAGIIVAGYDDKNKGEVYTIPLGGSVHKLPYAIAGSGSTFIYGYCDKNFRENMSKEETVDFIKHSLSQAIKWDGSSGGVIRMVVLTAAGVERLIFYPDEYEQL
notes: β1/Pre3, S. cerevisiae, mature subunit beginning at Thr1; numbers count on: the mature subunit; also called Pre3
binding result (β7-subunit [1]): binds

Second part, the binder after the results:

binding result (Blm10): binds
B1: α6-subunit (natural protein, S. cerevisiae, UniProt P40302 1-234, looked up)
chain: MFRNNYDGDTVTFSPTGRLFQVEYALEAIKQGSVTVGLRSNTHAVLVALKRNADELSSYQKKIIKCDEHMGLSLAGLAPDARVLSNYLRQQCNYSSLVFNRKLAVERAGHLLCDKAQKNTQSYGGRPYGVGLLIIGYDKSGAHLLEFQPSGNVTELYGTAIGARSQGAKTYLERTLDTFIKIDGNPDELIKAGVEAISQSLRDESLTVDNLSIAIVGKDTPFTIYDGEAVAKYI
notes: 20S proteasome subunit α6, S. cerevisiae

binding result [2]: binds | binding result (β7-subunit [3]): binds
B3: Ump1 (natural protein, S. cerevisiae, UniProt P38293 1-148, looked up)
chain: MNIVPQDTFKSQVSTDQDKSVLSSAVPSLPDTLRQQEGGAVPLSTQLNDRHPLESTLKNWETTQRQRQMEQYRQIFGIAEPMKRTMEMEIVNRTDFNPLSTNGSIHRDILLNKECSIDWEDVYPGTGLQASTMVGDDVHSKIEKQLGI
notes: residues 126-131 not resolved; two Ump1 molecules are encased in one late-PC, one in each half; also called ScUmp1; Ump1 chaperone

binding result (Blm10): binds
B4: α5-subunit (natural protein, S. cerevisiae, UniProt P32379 1-260, looked up)
chain: MFLTRSEYDRGVSTFSPEGRLFQVEYSLEAIKLGSTAIGIATKEGVVLGVEKRATSPLLESDSIEKIVEIDRHIGCAMSGLTADARSMIEHARTAAVTHNLYYDEDINVESLTQSVCDLALRFGEGASGEERLMSRPFGVALLIAGHDADDGYQLFHAEPSGTFYRYNAKAIGSGSEGAQAELLNEWHSSLTLKEAELLVLKILKQVMEEKLDENNAQLSCITKQDGFKIYDNEKTAELIKELKEKEAAESPEEADVEMS
notes: 20S proteasome subunit α5, S. cerevisiae

binding result (β7-subunit [1]): binds
B6: β2-subunit, autocatalytically processed (natural protein, S. cerevisiae, UniProt P25043 30-261, looked up)
chain: TTIVGVKFNNGVVIAADTRSTQGPIVADKNCAKLHRISPKIWCAGAGTAADTEAVTQLIGSNIELHSLYTSREPRVVSALQMLKQHLFKYQGHIGAYLIVAGVDPTGSHLFSIHAHGSTDVGYYLSLGSGSLAAMAVLESHWKQDLTKEEAIKLASDAIQAGIWNDLGSGSNVDVCVMEIGKDAEYLRNYLTPNVREEKQKSYKFPRGTTAVLKESIVNICDIQEEQVDITA
notes: β2/Pup1, S. cerevisiae, mature subunit beginning at the active site Thr1 after cleavage of the Gly-1/Thr1 bond (29-residue propeptide removed); numbers count on: the mature subunit; also called Pup1; mature β2
